Data reported in patent EP3069729A1 (Sequoia Sciences, Inc., dated 2016).

Target: T1, horseradish peroxidase (HRP) (UniProt P00433 31-338)
T1 sequence: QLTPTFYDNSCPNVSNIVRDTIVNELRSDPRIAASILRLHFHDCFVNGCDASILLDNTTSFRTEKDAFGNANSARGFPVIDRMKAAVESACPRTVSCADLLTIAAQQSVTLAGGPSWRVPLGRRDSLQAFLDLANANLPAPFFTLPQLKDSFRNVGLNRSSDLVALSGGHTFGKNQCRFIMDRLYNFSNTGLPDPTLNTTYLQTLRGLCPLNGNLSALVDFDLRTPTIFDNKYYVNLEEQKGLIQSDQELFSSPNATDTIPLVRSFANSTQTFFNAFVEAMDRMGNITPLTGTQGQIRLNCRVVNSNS
Assay: in vitro mannose binding potency assay; inferred from the Q133K FimCH complex

B1: FimC (other)
chain: GVALGATRVIYPAGQKQVQLAVTNNDENSTYLIQSWVENADGVKDGRFIVTPPLFAMKGKKENTLRILDATNNQLPQDRESLFWMNVKAIPSMDKSKLTENTLQLAIISRIKLYYRPAKLALPPDQAAEKLRFRRSANSLTLINPTPYYLTVTELNAGTRVLENALVPPMGESAVKLPSDAGSNITYRTINDYGALTPKMTGVME
notes: also called FimC protein
B1: no binding.
